According to patent publication US20160159924A1 (Novo Nordisk, published 2016):
Numbering of substitutions follows the chain as printed.

B1: rec0266-0000-0010-VH_G99H (antibody, mouse IgG1, V domains shown)
VH: DVKLVESGGGLVKPGGSLKLSCVASGFTFSSYTMSWVRQTPEKRLEWVATISGGGSHIYYADSVKGRFTISRDNAKNTLYLQMSSLKSEDTAIYYCTRDGRDHSWFAYWGQGTLVTVSA
VL: DIVMTQSPATLSVTPGDRVSLSCRTSQSIGDYLHWYQQKSHESPRLLIKYVSQSISGIPSRFSGSGSGSDFTLSINSVESEDVGVYYCQNSHSFPLTFGSGTKLELKR
B2: rec0266-0000-0010-VH_G99I (antibody, mouse IgG1, V domains shown)
VH: B1 VH with H103I
VL: B1 VL
B3: rec0266-0000-0010-VH_G99K (antibody, mouse IgG1, V domains shown)
VH: B1 VH with H103K
VL: B1 VL
B4: rec0266-0000-0010-VH_G99L (antibody, mouse IgG1, V domains shown)
VH: B1 VH with H103L
VL: B1 VL
B5: rec0266-0000-0010-VH_G99N (antibody, mouse IgG1, V domains shown)
VH: B1 VH with H103N
VL: B1 VL
B6: rec0266-0000-0010-VH_G99P (antibody, mouse IgG1, V domains shown)
VH: B1 VH with H103P
VL: B1 VL
B7: rec0266-0000-0010-VH_G99R (antibody, mouse IgG1, V domains shown)
VH: B1 VH with H103R
VL: B1 VL
B8: rec0266-0000-0010-VH_G99S (antibody, mouse IgG1, V domains shown)
VH: B1 VH with H103S
VL: B1 VL
B9: rec0266-0000-0010-VH_G99T (antibody, mouse IgG1, V domains shown)
VH: B1 VH with H103T
VL: B1 VL
B10: rec0266-0000-0010-VH_G99V (antibody, mouse IgG1, V domains shown)
VH: B1 VH with H103V
VL: B1 VL
B11: rec0266-0000-0010-VH_G99Y (antibody, mouse IgG1, V domains shown)
VH: B1 VH with H103Y
VL: B1 VL
B12: rec0266-0000-0010-VL_N90E (antibody, mouse IgG1, name in Kabat numbering, V domains shown)
VH: B1 VH with H103G
VL: B1 VL with N90E
B13: rec0266-0000-0010-VL_N90F (antibody, mouse IgG1, name in Kabat numbering, V domains shown)
VH: B1 VH with H103G
VL: B1 VL with N90F
B14: rec0266-0000-0010-VL_N90G (antibody, mouse IgG1, name in Kabat numbering, V domains shown)
VH: B1 VH with H103G
VL: B1 VL with N90G
B15: rec0266-0000-0010-VL_N90H (antibody, mouse IgG1, name in Kabat numbering, V domains shown)
VH: B1 VH with H103G
VL: B1 VL with N90H
B16: rec0266-0000-0010-VL_N90I (antibody, mouse IgG1, name in Kabat numbering, V domains shown)
VH: B1 VH with H103G
VL: B1 VL with N90I
B17: rec0266-0000-0010-VL_N90K (antibody, mouse IgG1, name in Kabat numbering, V domains shown)
VH: B1 VH with H103G
VL: B1 VL with N90K
B18: rec0266-0000-0010-VL_N90L (antibody, mouse IgG1, name in Kabat numbering, V domains shown)
VH: B1 VH with H103G
VL: B1 VL with N90L
B19: rec0266-0000-0010-VL_N90P (antibody, mouse IgG1, name in Kabat numbering, V domains shown)
VH: B1 VH with H103G
VL: B1 VL with N90P
B20: rec0266-0000-0010-VL_N90Q (antibody, mouse IgG1, name in Kabat numbering, V domains shown)
VH: B1 VH with H103G
VL: B1 VL with N90Q
B21: rec0266-0000-0010-VL_N90R (antibody, mouse IgG1, name in Kabat numbering, V domains shown)
VH: B1 VH with H103G
VL: B1 VL with N90R
B22: rec0266-0000-0010-VL_N90S (antibody, mouse IgG1, name in Kabat numbering, V domains shown)
VH: B1 VH with H103G
VL: B1 VL with N90S
B23: rec0266-0000-0010-VL_N90T (antibody, mouse IgG1, name in Kabat numbering, V domains shown)
VH: B1 VH with H103G
VL: B1 VL with N90T
B24: rec0266-0000-0010-VL_N90V (antibody, mouse IgG1, name in Kabat numbering, V domains shown)
VH: B1 VH with H103G
VL: B1 VL with N90V
B25: rec0266-0000-0010-VL_N90Y (antibody, mouse IgG1, name in Kabat numbering, V domains shown)
VH: B1 VH with H103G
VL: B1 VL with N90Y
B26: rec0266-0000-0010-VL_S91A (antibody, mouse IgG1, name in Kabat numbering, V domains shown)
VH: B1 VH with H103G
VL: B1 VL with S91A
B27: rec0266-0000-0010-VL_S91D (antibody, mouse IgG1, name in Kabat numbering, V domains shown)
VH: B1 VH with H103G
VL: B1 VL with S91D
B28: rec0266-0000-0010-VL_S91E (antibody, mouse IgG1, name in Kabat numbering, V domains shown)
VH: B1 VH with H103G
VL: B1 VL with S91E
B29: rec0266-0000-0010-VL_S91F (antibody, mouse IgG1, name in Kabat numbering, V domains shown)
VH: B1 VH with H103G
VL: B1 VL with S91F
B30: rec0266-0000-0010-VL_S91H (antibody, mouse IgG1, name in Kabat numbering, V domains shown)
VH: B1 VH with H103G
VL: B1 VL with S91H
B31: rec0266-0000-0010-VL_S91I (antibody, mouse IgG1, name in Kabat numbering, V domains shown)
VH: B1 VH with H103G
VL: B1 VL with S91I
B32: rec0266-0000-0010-VL_S91K (antibody, mouse IgG1, name in Kabat numbering, V domains shown)
VH: B1 VH with H103G
VL: B1 VL with S91K
B33: rec0266-0000-0010-VL_S91L (antibody, mouse IgG1, name in Kabat numbering, V domains shown)
VH: B1 VH with H103G
VL: B1 VL with S91L
B34: rec0266-0000-0010-VL_S91P (antibody, mouse IgG1, name in Kabat numbering, V domains shown)
VH: B1 VH with H103G
VL: B1 VL with S91P
B35: rec0266-0000-0010-VL_S91Q (antibody, mouse IgG1, name in Kabat numbering, V domains shown)
VH: B1 VH with H103G
VL: B1 VL with S91Q
B36: rec0266-0000-0010-VL_S91R (antibody, mouse IgG1, name in Kabat numbering, V domains shown)
VH: B1 VH with H103G
VL: B1 VL with S91R
B37: rec0266-0000-0010-VL_S91T (antibody, mouse IgG1, name in Kabat numbering, V domains shown)
VH: B1 VH with H103G
VL: B1 VL with S91T
B38: rec0266-0000-0010-VL_S91V (antibody, mouse IgG1, name in Kabat numbering, V domains shown)
VH: B1 VH with H103G
VL: B1 VL with S91V
B39: rec0266-0000-0010-VL_S91Y (antibody, mouse IgG1, name in Kabat numbering, V domains shown)
VH: B1 VH with H103G
VL: B1 VL with S91Y

These binders were tested against T1, recombinant human sc-uPA (human, UniProt P00749 21-431) (assay: SPR, mAb immobilised).
T1 construct: 411 amino acid single-chain zymogen expressed in HEK293; the 20-residue signal peptide is not present in the mature protein; also called human single-chain uPA; pro-uPA
Protocol: The binding affinity to recombinant human sc-uPA protein (SEQ ID NO:1) was measured by surface plasmon resonance (SPR).
(§1) The experiments were performed on a Biacore™ instrument (GE Healthcare) and analysed with the BIAcore 4000 Evaluation Software. Anti-human uPA mAb variants were directly immobilized at 150-600 RU on flow cells of a CM5 sensor chip (GE Healthcare; cat. # BR-1000-12) via amine coupling, respectively. Recombinant human sc-uPA was diluted in HBS-N (GE Healthcare Cat BR-1006-70) with 1% BSA buffer with a dilution factor 3× ranging 1000-0.13 nM. Recombinant human sc-uPA was injected for 60 s, followed by a 600 s dissociation phase. Binding curves were measured at 25° C. with a flow rate of 30 μL/min. Regeneration of the chip surface was performed with pH1.5 Glycine for 25 s at 30 μl/min. Determination of the kinetic parameters was performed by fitting with a 1:1 binding model. Binding affinities were calculated and are stated in Table 17 below.

Binder	Kd [nM]
B1	27
B2	4.6
B3	4.8
B4	2.1
B5	18
B6	2.5
B7	15
B8	0.41
B9	5.4
B10	2.5
B11	1.8

Target: T1, recombinant human sc-uPA
Assay: SPR, mAb immobilised
Remark: another data set of the same source
Protocol: The binding affinity to recombinant human sc-uPA protein (SEQ ID […]) was measured by surface plasmon resonance (SPR).
as §1, with “20” for “17”

Binder	Kd [nM]
B12	0.43
B13	0.79
B14	0.68
B15	0.4
B16	0.62
B17	1.1
B18	0.61
B19	0.62
B20	0.32
B21	1.9
B22	0.38
B23	0.48
B24	0.58
B25	0.8
B26	1.3
B27	2.1
B28	10
B29	11
B30	5.3
B31	2.9
B32	3.2
B33	5.7
B34	2
B35	2.2
B36	3.1
B37	0.88
B38	12
B39	3.6
